For one experiment, the system named is PAE-FGFR1 cells. As to the kind of experiment: Endothelial cell proliferation in response to bFGF. In kind it is cell-based, porcine. The following applies: recombinant TIMP3 (1 and 5 μg/ml) or overexpression.
A further experiment relates to ERK1 and ERK2. The experiment is described as follows: ERK1 and ERK2 phosphorylation (immunoblot). Particulars: recombinant TIMP3. In kind it is cell-based. The method, then: PDGF-BB-mediated phosphorylation was examined similarly in PAESPDGFR-β cells (anti-PDGFR-β; top right panel). […] PDGF-BB-mediated phosphorylation of PDGFR-β in PAE-PDGFR-β cells overexpressing TIMP3 (top right). KDR protein or PDGFR-β protein was analyzed by both immunoprecipitation and immunoblotting with antibodies specific for KDR (left) or for PDGFR-β (right; A and B, second panels from top). […] Total protein levels of ERK were determined by immunoblotting with antibodies specific for ERK1/2 (anti-ERK1/2; A and B, bottom).
Cell fractions, prepared as described earlier, or immunoprecipitates of the lysates with the indicated antibodies, were subjected to SDS-PAGE. Proteins were detected with horseradish peroxidase-conjugated antibodies specific for either rabbit or mouse IgG (Amersham Pharmacia, Piscataway, N.J.) followed by enhanced chemiluminescence.
For orientation: Immunoblotting shows a protein as a band on a membrane.

The next experiment deals with T1, soluble FLT1-IgG (Homo sapiens, UniProt P17948).
T1 construct: purchased R&D Systems
The experiment is described as follows: Solid-phase binding of [125I]VEGF165 to soluble FLT1-IgG. Particulars: similar doses as for KDR-IgG. As to the method: (B) Expression of KDR in the lysate and plasma membrane (PM) of PAE-KDR and PAE-KDR-TIMP3 was analyzed by immunoprecipitation (Ip) and western blot (Ib) analysis with antibody specific for KDR. […] Values are the mean±s.e.m. of triplicate wells.
Soluble KDR-Fc or FLT1-Fc (50 ng) was added to each well. […] After washing, the bound protein was solubilized with 1% SDS and 1 M NaOH and radioactivity measured in a γ-counter.

A further experiment deals with T2, KDR-IgG (Homo sapiens, UniProt P35968).
T2 construct: purchased R&D Systems
As to the kind of experiment: Cross-linking of [125I]TIMP3 to soluble KDR. In kind it is binding. Particulars: bis(sulfosuccinimidyl)suberate. As to the method: Immunoprecipitation of cell lysates with antibodies specific for TIMP3 was followed by immunoblotting with antibodies specific for KDR (top). As a control for KDR receptor, cell lysates were immunoprecipitated with anti-bodies specific for KDR and probed with antibodies specific for KDR Immunoprecipitation with antibodies specific for KDR and immunoblotting with antibodies specific for TIMP3 (bottom) were carried out on PAE-KDR cells exposed to recombinant TIMP3 or PAE-KDR-vector and PAE-KDR cells overexpressing TIMP3, to confirm the interaction. […] Competition with unlabeled TIMP3 was carried out to ensure specificity. […] (E) In vivo interaction of KDR and TIMP3 in human placenta. Immunoprecipitation using antibodies specific TIMP3 (top) and KDR (bottom) was followed by immunoblotting with antibodies specific for KDR (top) and TIMP3 (bottom).
Ligand-receptor complexes on the cell surface were crosslinked with 0.5 mM disuccinimidyl suberate (Pierce) and analyzed by immunoprecipitation and SDS-PAGE followed by autoradiography. For in vitro assays, radioligand was crosslinked with 250 ng soluble KDR.

T2 sequence (P35968 20-764 limits assumed): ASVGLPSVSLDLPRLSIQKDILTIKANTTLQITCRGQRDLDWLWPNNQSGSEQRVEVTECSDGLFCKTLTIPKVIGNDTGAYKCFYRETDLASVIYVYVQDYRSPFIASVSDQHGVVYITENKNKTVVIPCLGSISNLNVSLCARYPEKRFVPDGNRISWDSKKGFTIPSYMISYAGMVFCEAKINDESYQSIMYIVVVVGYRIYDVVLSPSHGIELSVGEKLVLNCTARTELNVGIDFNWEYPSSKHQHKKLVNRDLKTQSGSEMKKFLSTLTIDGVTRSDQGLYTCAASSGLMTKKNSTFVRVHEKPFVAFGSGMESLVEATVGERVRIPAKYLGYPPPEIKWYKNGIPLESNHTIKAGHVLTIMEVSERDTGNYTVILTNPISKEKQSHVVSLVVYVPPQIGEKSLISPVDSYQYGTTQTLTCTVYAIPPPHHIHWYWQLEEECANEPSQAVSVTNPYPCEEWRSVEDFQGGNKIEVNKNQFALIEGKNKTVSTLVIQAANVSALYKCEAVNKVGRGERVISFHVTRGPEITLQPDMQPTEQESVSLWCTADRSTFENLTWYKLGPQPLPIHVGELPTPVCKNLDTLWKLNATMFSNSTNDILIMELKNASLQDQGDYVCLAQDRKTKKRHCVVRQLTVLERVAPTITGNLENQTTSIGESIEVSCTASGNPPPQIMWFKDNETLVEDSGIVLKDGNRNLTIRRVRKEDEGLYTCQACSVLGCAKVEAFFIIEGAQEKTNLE
T1 sequence (P17948 27-758 limits assumed): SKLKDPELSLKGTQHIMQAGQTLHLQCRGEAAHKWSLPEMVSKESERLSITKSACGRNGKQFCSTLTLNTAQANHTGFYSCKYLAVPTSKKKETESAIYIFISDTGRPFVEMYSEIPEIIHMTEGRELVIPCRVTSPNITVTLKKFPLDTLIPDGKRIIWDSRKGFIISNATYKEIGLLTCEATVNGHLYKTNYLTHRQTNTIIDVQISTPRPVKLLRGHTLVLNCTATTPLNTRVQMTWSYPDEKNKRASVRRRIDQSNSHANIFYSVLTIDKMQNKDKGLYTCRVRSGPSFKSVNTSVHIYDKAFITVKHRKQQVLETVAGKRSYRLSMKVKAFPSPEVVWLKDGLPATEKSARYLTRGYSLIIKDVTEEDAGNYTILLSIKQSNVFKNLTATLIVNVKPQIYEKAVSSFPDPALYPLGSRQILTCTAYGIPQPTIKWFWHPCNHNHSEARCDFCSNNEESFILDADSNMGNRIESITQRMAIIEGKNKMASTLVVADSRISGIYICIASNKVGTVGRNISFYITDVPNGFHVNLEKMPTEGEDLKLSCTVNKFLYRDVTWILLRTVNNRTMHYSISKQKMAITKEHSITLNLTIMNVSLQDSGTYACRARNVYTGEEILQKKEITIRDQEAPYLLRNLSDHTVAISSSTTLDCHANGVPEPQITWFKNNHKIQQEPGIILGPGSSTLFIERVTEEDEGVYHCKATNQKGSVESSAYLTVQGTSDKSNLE

B1: TIMP3: tissue inhibitor of metalloproteinases-3; recombinant human form expressed in NSO myeloma cells, or wild-type expressed in transfected cells (protein, listed as Homo sapiens)
chain: MTPWLGLIVLLGSWSLGDWGAEACTCSPSHPQDAFCNSDIVIRAKVVGKKLVKEGPFGTLVYTIKQMKMYRGFTKMPHVQYIHTEASESLCGLKLEVNKYQYLLTGRVYDGKMYTGLCNFVERWDQLTLSQRKGLNYRYHLGCNCKIKSCYYLPCFVTSKNECLWTDMLSNFGYPGYQSKHYACIRQKGGYCSWYRGWAPPDKSIINATDP
B1: the “effect on proliferative response to basic fibroblast growth factor (bFGF)” value with PAE-FGFR1 cells is on record as “Neither recombinant TIMP3 nor TIMP3 overexpression affected the proliferative response”. Also, in the experiment on ERK1 and ERK2, the “downstream phosphorylation of ERK1 and ERK2 in response to VEGF” value is given as “inhibited in response to VEGF”. Besides, the “inhibition of [125I]VEGF binding to soluble FLT1-IgG” value with soluble FLT1-IgG is listed as “could not inhibit”. Moreover, the “direct binding of [125I]TIMP3 to KDR-IgG by cross-linking” value in the experiment with KDR-IgG is “could be covalently cross-linked to KDR-IgG”.

For the origin of these results see patent US8431396B2, “Anti-angiogenic peptides” (The Cleveland Clinic Foundation, priority 2003, dated 2013).
